Assays:
[1] = target: GST-emerin (amino acids 1–176, lacking the TM domain) (UniProt P50402); test: reverse GST pull-down with western blot densitometry; conditions: lysates of U2OS cells transfected with GFP-nesprin-1α2 WT or mutant; three independent experiments, mean ± SEM; parent: est. 1.0; read off a plot
[2] = target: GST-lamin A (amino acids 356–665, containing nesprin-1/2 binding domain) (UniProt P02545); test: as above; conditions: lysates of U2OS cells transfected with GFP-nesprin-1α2 WT or mutant; three independent experiments, mean ± SEM; parent: est. 1.0; read off a plot
Myc-SUN2 (full length) = Myc-SUN2 (full length) (UniProt Q9UH99); test: GST pull-down with western blot densitometry; conditions: lysate of U2OS cells transfected with Myc-SUN2 (full length); three independent experiments, mean ± SEM; parent: est. 1.0; read off a plot
emerin (endogenous) = emerin (endogenous) (UniProt P50402); test: GST pull-down with western blot densitometry; conditions: U2OS cell lysate; three independent experiments, mean ± SEM; parent: est. 1.0; read off a plot
[3] = target: lamin A/C (endogenous, U2OS lysate; lamin A and lamin C bands quantified together); test: GST pull-down with western blot densitometry; conditions: U2OS cell lysate; three independent experiments, mean ± SEM; parent: est. 1.0; read off a plot

UniProt Q9UH99, sequence (Q9UH99 whole entry): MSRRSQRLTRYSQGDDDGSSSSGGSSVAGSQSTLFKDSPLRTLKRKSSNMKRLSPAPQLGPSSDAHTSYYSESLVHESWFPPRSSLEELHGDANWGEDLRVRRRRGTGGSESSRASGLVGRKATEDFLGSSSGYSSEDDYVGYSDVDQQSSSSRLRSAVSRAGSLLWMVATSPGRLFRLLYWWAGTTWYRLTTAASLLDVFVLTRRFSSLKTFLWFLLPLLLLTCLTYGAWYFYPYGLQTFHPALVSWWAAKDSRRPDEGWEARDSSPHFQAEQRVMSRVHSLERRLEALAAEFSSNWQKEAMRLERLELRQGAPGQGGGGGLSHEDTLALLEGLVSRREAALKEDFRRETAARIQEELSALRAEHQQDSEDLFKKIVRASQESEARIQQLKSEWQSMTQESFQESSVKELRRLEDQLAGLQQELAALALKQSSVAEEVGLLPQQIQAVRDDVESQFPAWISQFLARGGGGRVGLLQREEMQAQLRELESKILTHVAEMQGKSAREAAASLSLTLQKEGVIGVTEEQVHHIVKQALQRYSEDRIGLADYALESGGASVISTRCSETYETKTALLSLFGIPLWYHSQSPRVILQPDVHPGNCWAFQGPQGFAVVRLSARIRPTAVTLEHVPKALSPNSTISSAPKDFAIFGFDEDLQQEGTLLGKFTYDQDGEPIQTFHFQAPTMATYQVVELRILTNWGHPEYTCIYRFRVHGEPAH
UniProt P02545, sequence (P02545 356-664): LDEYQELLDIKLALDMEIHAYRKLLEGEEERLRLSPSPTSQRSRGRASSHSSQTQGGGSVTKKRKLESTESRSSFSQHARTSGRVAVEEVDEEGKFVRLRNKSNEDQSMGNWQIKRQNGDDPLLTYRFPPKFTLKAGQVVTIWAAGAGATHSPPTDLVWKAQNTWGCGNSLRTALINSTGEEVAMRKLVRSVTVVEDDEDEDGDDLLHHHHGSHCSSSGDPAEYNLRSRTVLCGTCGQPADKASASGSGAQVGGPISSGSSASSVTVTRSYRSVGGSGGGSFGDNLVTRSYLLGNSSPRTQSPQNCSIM

Substance | ratio to parent [1] | ratio to parent [2] | ratio to parent (Myc-SUN2 (full length)) | ratio to parent (emerin (endogenous)) | ratio to parent [3]
GFP-tagged nesprin-1α2 WT N8406K | 1.1 | 0.31 |  |  | 
GFP-tagged nesprin-1α2 WT S8381C | 0.93 | 0.17 |  |  | 
GST-tagged WT nesprin-1α2 SR1-6 (lacking KASH domain) N8406K |  |  | 0.15 | 1.2 | 0.17
GST-tagged WT nesprin-1α2 SR1-6 (lacking KASH domain) R8272Q |  |  | 0.25 | 1 | 0.18

The remaining lines, values ahead:

ratio to parent [1] | ratio to parent [2] | ratio to parent (Myc-SUN2 (full length)) | ratio to parent (emerin (endogenous)) | ratio to parent [3] | Substance
1.1 | 0.33 |  |  |  | GFP-tagged nesprin-1α2 WT R8272Q
 |  | 0.19 | 0.87 | 0.12 | GST-tagged WT nesprin-1α2 SR1-6 (lacking KASH domain) S8381C
